Experimental data taken from article PMC3124082.

Target: Putative NADPH-quinone reductase
Test: SAXS

## Putative NADPH-quinone reductase (natural protein)
  fraction of dimer in the oligomer mixture: 47%
  fraction of tetramer in the oligomer mixture: 53%
